Data published in patent publication US20210403593A1 (TIZONA THERAPEUTICS, published 2021).

T1: cynomolgus macaque (Macaca fascicularis) CD39 (Macaca fascicularis, UniProt P49961 7-510 (human entry))
T1 construct: On engineered CHO cells and on primary cyno B cells and monocytes; also called cyno CD39; cCD39
T1 chain: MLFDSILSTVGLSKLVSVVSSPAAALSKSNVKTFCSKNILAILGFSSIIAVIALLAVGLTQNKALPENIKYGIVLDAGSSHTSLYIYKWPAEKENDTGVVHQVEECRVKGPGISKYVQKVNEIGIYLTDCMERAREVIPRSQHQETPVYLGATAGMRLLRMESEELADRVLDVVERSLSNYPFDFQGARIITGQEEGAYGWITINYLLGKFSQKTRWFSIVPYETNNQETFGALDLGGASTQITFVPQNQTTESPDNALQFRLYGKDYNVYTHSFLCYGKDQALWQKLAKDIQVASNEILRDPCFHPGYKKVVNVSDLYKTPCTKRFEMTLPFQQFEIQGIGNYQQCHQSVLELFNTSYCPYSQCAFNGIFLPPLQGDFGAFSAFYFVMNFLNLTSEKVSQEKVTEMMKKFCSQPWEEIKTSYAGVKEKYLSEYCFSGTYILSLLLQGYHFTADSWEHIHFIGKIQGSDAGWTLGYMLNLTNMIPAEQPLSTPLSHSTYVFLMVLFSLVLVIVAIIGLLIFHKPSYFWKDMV

T2: human CD39 (cellular) (human, UniProt P49961 1-510)
T2 construct: Same protein on engineered CHO cells and on cells that express it endogenously; also called hCD39; cellular CD39
T2 sequence: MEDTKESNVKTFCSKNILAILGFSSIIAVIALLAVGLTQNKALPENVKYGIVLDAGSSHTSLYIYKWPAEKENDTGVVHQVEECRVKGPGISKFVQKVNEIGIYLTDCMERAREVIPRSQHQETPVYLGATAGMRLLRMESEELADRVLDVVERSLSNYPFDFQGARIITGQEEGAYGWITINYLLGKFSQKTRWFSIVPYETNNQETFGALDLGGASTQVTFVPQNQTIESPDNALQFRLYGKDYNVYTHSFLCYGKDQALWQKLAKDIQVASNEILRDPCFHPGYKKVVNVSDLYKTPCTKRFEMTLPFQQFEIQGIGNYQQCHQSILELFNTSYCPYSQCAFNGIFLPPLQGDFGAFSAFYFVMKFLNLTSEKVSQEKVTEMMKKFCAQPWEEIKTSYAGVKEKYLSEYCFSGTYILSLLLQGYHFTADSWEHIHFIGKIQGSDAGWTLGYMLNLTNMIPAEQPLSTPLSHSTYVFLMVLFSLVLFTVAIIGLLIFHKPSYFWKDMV

T3: Chimera #9 (Homo sapiens (Human), UniProt P49961 1-510)
T3 construct: Expressed on CHO cells
T3 chain: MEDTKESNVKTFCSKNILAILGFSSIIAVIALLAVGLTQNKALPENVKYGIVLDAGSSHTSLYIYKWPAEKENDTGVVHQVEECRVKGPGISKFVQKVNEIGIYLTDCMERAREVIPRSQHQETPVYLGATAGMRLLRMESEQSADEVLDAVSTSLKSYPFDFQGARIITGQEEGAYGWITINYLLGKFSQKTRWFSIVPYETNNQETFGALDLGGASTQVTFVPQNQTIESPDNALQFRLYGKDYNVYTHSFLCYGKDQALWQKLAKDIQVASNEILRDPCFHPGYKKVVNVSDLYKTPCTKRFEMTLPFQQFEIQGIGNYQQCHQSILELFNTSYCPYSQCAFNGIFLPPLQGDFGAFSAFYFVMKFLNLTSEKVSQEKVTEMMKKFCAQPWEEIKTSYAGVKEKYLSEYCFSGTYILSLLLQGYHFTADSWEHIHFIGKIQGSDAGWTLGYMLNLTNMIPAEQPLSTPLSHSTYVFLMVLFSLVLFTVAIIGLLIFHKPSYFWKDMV

T4: Chimera #10 (Homo sapiens (Human), UniProt P49961 1-510)
T4 construct: Expressed on CHO cells
T4 chain: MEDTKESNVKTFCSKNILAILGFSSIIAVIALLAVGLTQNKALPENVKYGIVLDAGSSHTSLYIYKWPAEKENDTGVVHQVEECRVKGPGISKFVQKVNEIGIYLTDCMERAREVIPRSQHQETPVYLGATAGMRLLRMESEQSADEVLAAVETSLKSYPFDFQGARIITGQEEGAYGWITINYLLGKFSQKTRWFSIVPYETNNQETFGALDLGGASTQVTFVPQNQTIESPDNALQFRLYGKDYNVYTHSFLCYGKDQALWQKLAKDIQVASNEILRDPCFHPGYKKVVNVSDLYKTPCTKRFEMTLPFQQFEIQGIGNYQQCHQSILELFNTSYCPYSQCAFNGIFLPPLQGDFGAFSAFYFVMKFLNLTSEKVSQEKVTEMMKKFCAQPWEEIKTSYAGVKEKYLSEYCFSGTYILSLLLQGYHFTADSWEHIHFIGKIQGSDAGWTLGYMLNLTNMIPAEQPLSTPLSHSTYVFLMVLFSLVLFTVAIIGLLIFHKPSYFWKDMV

T5: Chimera #4 (Homo sapiens (Human), UniProt P49961 1-510)
T5 construct: Expressed on CHO cells
T5 chain: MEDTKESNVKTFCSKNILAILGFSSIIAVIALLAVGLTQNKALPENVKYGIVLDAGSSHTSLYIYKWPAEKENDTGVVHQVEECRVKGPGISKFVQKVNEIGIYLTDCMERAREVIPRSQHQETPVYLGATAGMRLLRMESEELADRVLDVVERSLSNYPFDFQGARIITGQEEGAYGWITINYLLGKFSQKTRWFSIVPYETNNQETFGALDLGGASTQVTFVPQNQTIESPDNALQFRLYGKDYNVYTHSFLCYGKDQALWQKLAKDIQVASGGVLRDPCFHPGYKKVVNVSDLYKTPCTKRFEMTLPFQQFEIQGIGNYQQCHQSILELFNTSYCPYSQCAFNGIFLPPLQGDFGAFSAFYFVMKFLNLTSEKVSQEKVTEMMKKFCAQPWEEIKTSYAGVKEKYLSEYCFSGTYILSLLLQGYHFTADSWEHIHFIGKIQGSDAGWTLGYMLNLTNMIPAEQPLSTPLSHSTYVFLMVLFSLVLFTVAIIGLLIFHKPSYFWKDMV

T6: Chimera #2 (human, UniProt P49961 1-510)
T6 construct: Expressed on CHO cells; also called human-mouse Chimera #2
T6 chain: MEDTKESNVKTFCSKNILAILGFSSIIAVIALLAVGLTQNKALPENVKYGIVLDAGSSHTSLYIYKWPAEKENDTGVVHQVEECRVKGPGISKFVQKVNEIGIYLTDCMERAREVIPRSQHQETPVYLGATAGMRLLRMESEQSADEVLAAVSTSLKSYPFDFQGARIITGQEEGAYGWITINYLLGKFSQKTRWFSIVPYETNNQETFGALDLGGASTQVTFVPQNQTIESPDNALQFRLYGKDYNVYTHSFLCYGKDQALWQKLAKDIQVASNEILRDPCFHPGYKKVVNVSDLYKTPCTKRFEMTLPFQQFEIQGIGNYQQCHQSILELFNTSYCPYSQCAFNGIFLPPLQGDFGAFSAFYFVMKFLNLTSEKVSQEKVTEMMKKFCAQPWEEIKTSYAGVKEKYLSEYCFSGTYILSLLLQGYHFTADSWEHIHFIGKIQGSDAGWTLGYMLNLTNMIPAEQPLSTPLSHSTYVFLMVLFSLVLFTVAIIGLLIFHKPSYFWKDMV


Experiments:
[1] = molecular target: T1, cynomolgus macaque (Macaca …); test: flow cytometry, 100 nM IgG, MFI on CHO-cCD39 / MFI on parental CHO;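 further: antibodies bound to the cells for 30 min in PBS, then bound IgG was revealed with a fluorescent goat anti-human IgG secondary antibody, 20 min on ice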
Method: (§1) 100 nanomolar IgGs (each antibody is indicated as a unique clone number in the FIG.) were incubated at 25° C. for 30 minutes on ice in phosphate buffered saline (PBS) with parental CHO cells or CHO cells engineered to express either human or cynomolgus macaque (Macaca fascicularis) CD39 (CHO CD39 cells). Cells were then washed with ice cold PBS and incubated with a fluorescently labeled goat-anti-human IgG for 20 minutes on ice. Cells were washed and resuspended in ice cold PBS prior to analysis by flow cytometry.

human CD39 (cellular) = molecular target: T2, human CD39 (cellular); test: flow cytometry, 100 nM IgG, MFI on CHO-hCD39 / MFI on parental CHO;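 further: cells exposed to IgG for 30 min on ice in PBS, bound antibody then revealed with a fluorescent goat anti-human IgG secondary (20 min, on ice)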
Method: as §1

Chimera #9 = molecular target: T3, Chimera #9; test: FACS on CHO cells, 15 ug/ml; Chimera 2 with human D150 ([..])
Method: The chimeras were expressed in CHO cells and the ability of anti-human CD39 antibodies to bind the chimeras tested via FACS. In brief, cells were washed and blocked in FACS buffer (PBS/2% FBS) for 30 min on ice. […] After 2 washes, cells were resuspended in FACS buffer and analyzed on BD Fortessa. Data was processed with FlowJo. Positive binding was scored as “yes” and lack of binding was scored as “NO” and examples of FACS plots used to generate this table are in FIGS. 14.F and 14.G.

Chimera #10 = molecular target: T4, Chimera #10; test: FACS on CHO cells, 15 ug/ml; Chimera 2 with human E153 ([..])
Method: (§2) The chimeras were expressed in CHO cells and the ability of anti-human CD39 antibodies to bind the chimeras tested via FACS. In brief, cells were washed and blocked in FACS buffer (PBS/2% FBS) for 30 min on ice. […] After 2 washes, cells were resuspended in FACS buffer and analyzed on BD Fortessa. Data was processed with FlowJo.

Chimera #4 = molecular target: T5, Chimera #4; test: FACS on CHO cells, 15 ug/ml; human M1-S274 + mouse GGV + human L278-V510
Method: as §2

Chimera #2 = molecular target: T6, Chimera #2; test: FACS on CHO cells; human M1-E142 + mouse Q143-S158 ([..]) + human Y159-V510
Method: as §2

Cell Binding (FOB) [1] [fold over background]	Cell Binding (FOB) (human CD39 (cellular)) [fold over background]	binding result (Chimera #9)	binding result (Chimera #10)	binding result (Chimera #4)	binding result (Chimera #2)	Binder
4540	1040	–	–	–	–	31896 (antibody, V domains shown) VH: QVQLVQSGAEVKKPGSSVKVSCKASGGTFSKLAISWVRQAPGQGLEWMGGIGFGTANYAQKFQGRVTITADESASTAYMELSSLRSEDTAVYYCARGGAKYASTHGMDVWGQGTTVTVSS VL: not shown
4580	1090	–	–	–	–	31915 (antibody, human IgG4 S228P, kappa, V domains shown) VH: QVQLVQSGAEVKKPGSSVKVSCKASGGTFSSLPISWVRQAPGQGLEWMGGIGFGTANYAQKFQGRVTITADESTSTAYMELSSLRSEDTAVYYCARGGAKYASKWGMDVWGQGTTVTVSS VL: not shown
3570	1240	binds	binds	binds	no binding (tested: 15 ug/ml)	31414 (antibody, human IgG4 S228P, kappa, V domains shown) VH: QVQLVQSGAEVKKPGASVKVSCKASGYTFKSYEMHWVRQAPGQGLEWMGRINPSVGSTWYAQKFQGRVTMTRDTSTSTVYMELSSLRSEDTAVYYCARGKREGGTEYLRNWGQGTLVTVSS VL: EIVLTQSPGTLSLSPGERATLSCRASQSVSSSYLAWYQQKPGQAPRLLIYGASSRATGIPDRFSGSGSGTDFTLTISRLEPEDFAVYYCQQYHSYITFGGGTKVEIKR
3180	1080	binds	binds	binds	no binding (tested: 15 ug/ml)	31418 (antibody, human IgG4 S228P, kappa, V domains shown) VH: QVQLVQSGAEVKKPGASVKVSCKASGYTFKSYEMHWVRQAPGQGLEWMGRINPSGGSTWYAQKFQGRVTMTRDTSTSTVYMELSSLRSEDTAVYYCARGKREGGTEYLRHWGQGTLVTVSS VL: EIVLTQSPGTLSLSPGERATLSCRASQSVSSSYLAWYQQKPGQAPRLLIYGASSRATGIPDRFSGSGSGTDFTLTISRLEPEDFAVYYCQQYYFYITFGGGTKVEIKR
4650	1030	–	–	–	–	31891 (antibody, human IgG4 S228P, kappa, V domains shown) VH: QVQLVQSGAEVKKPGASVKVSCKASGYIFKSYEMHWVRQAPGQGLEWMGRINPSVGSTWYAQKFQGRVTMTRDTSTSTVYMELSSLRSEDTAVYYCARGKREGGTEYLRVWGQGTLVTVSS VL: EIVLTQSPGTLSLSPGERATLSCRASQSVSSSYLAWYQQKPGQAPRLLIYYASSRAYGIPDRFSGSGSGTDFTLTISRLEPEDFAVYYCQQYHNAITFGGGTKVEIKR
3570	1220	–	–	–	–	31430 (antibody, human IgG4 S228P, kappa, V domains shown) VH: QVQLVQSGAEVKKPGASVKVSCKASGYTFKSYEMHWVRQAPGQGLEWMGRINPSGGSTWYAQKFQGRVTMTRDTSTSTVYMELSSLRSEDTAVYYCARGKREGGTEYLRHWGQGTLVTVSS VL: EIVLTQSPGTLSLSPGERATLSCEASQSVSYSYLAWYQQKPGQAPRLLIYGASSRANGIPDRFSGSGSGTDFTLTISRLEPEDFAVYYCQQYHSALTFGGGTKVEIKR
3360	1170	–	–	–	–	31415 (antibody, human IgG4 S228P, kappa, V domains shown) VH: QVQLVQSGAEVKKPGASVKVSCKASGYTFTSYQMHWVRQAPGQGLEWMGRINPSGGSTWYAQKFQGRVTMTRDTSTSTVYMELSSLRSEDTAVYYCARGKREGGTEYLRSWGQGTLVTVSS VL: EIVLTQSPGTLSLSPGERATLSCRASQSVSSSYLAWYQQKPGQAPRLLIYGASSRATGIPDRFSGSGSGTDFTLTISRLEPEDFAVYYCQQYHSYITFGGGTKVEIKR
5080	1320	–	–	binds	–	31873 (antibody, human IgG4 S228P, kappa, V domains shown) VH: QVQLVQSGAEVKKPGSSVKVSCKASGGTFSKYGISWVRQAPGQGLEWMGSIIPEFGIANYAQKFQGRVTITADESTSTAYMELSSLRSEDTAVYYCARESGGYRDHRLGVWGQGTMVTVSS VL: EIVMTQSPATLSVSPGERATLSCRASQSVGSNLAWYQQKPGQAPRLLIYGASTRASGIPARFSGSGSGTEFTLTISSLQSEDFAVYYCQQYLLWPLTFGGGTKVEIKR
